Measurements published in PMC8041783, “A positive charge region of Salmonella FliI is required for ATPase formation and efficient flagellar protein export” (Communications Biology, 2021).

Tests used:
[1] = target: the molecule itself; assay: negative-stain electron microscopy; purified FliI 1 μM in 50 mM Tris-HCl pH 8.0, 113 mM NaCl, 0.8 mM EDTA, 1 mM DTT with 5 mM MgCl2, 5 mM ADP, 5 mM AlCl3, 15 mM NaF, 20 min at room temperature; uranyl acetate stain; reference-free 2D class averages (RELION); monomers to hexameric ring
GST-FliJ = target: T1, GST-FliJ (Salmonella enterica, UniProt P0A1K1 1-147); assay: pull-down; GST affinity chromatography: purified His-FliI or His-FliI-5A mixed with purified GST or GST fusions, dialysed overnight against PBS at 4 °C; Glutathione Sepharose 4B; wash 10 ml PBS; elution with 10 mM reduced glutathione; CBB and anti-FliI immunoblot; settings: both partners purified
T1 construct: FliJ of Salmonella enterica; source: S. enterica SJW1368, purified (Glutathione Sepharose 4B)
T1 sequence (P0A1K1 whole entry, the tested form may be a part): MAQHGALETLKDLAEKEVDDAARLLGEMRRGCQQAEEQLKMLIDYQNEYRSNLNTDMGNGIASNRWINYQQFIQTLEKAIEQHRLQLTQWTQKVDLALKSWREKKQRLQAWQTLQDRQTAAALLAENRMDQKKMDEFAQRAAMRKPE

B1: His-FliI(R26A/R27A/R33A/R76A/R93A) (enzyme)
chain: MTTRLTRWLTALDNFEAKMALLPAVAAYGRLTAATGLVLEATGLQLPLGATCIIERQDGPETKEVESEVVGFNGQALFLMPLEEVEGILPGAAVYARNGHGDGLQSGKQLPLGPALLGRVLDGGGKPLDGLPAPDTLETGALITPPFNPLQRTPIEHVLDTGVRAINALLTVGRGQRMGLFAGSGVGKSVLLGMMARYTRADVIVVGLIGERGREVKDFIENILGPDGRARSVVIAAPADVSPLLRMQGAAYATRIAEDFRDRGQHVLLIMDSLTRYAMAQREIALAIGEPPATKGYPPSVFAKLPALVERAGNGIHGGGSITAFYTVLTEGDDQQDPIADSARAILDGHIVLSRRLAEAGHYPAIDIEASISRAMTALITEQHYARVRLFKQLLSSFQRNRDLVSVGAYAKGSDPMLDKAITLWPQLEAFLQQGIFERADWEDSLQALDLIFPTV
notes: FliI of Salmonella enterica, UniProt P26465, with R26A/R27A/R33A/R76A/R93A; also called FliI-5A; His-FliI-5A; source: S. enterica SJW1368, pTrc99A-based plasmid co-expressing FliH; in lysate (Ni pull-down) and purified (Ni-NTA, then SEC to remove FliH)
Question: What does the source list for B1?
Answer: stoichiometry N [1]: 6; binding result (GST-FliJ): binds

B2: His-FliI(R26A/R27A/R33A) (enzyme)
chain: MTTRLTRWLTALDNFEAKMALLPAVAAYGRLTAATGLVLEATGLQLPLGATCIIERQDGPETKEVESEVVGFNGQRLFLMPLEEVEGILPGARVYARNGHGDGLQSGKQLPLGPALLGRVLDGGGKPLDGLPAPDTLETGALITPPFNPLQRTPIEHVLDTGVRAINALLTVGRGQRMGLFAGSGVGKSVLLGMMARYTRADVIVVGLIGERGREVKDFIENILGPDGRARSVVIAAPADVSPLLRMQGAAYATRIAEDFRDRGQHVLLIMDSLTRYAMAQREIALAIGEPPATKGYPPSVFAKLPALVERAGNGIHGGGSITAFYTVLTEGDDQQDPIADSARAILDGHIVLSRRLAEAGHYPAIDIEASISRAMTALITEQHYARVRLFKQLLSSFQRNRDLVSVGAYAKGSDPMLDKAITLWPQLEAFLQQGIFERADWEDSLQALDLIFPTV
notes: FliI of Salmonella enterica, UniProt P26465, with R26A/R27A/R33A; also called FliI-3A; His-FliI-3A; source: E. coli BL21 (DE3) Star, pET19b-based plasmid, purified (Ni-NTA, Superdex 200 SEC)
Question: With B2 as the binder, how does the “stoichiometry N” value [1] read?
Answer: ~6

B3: His-FliI(R26A/R27A/R33A/R76A) (enzyme)
chain: MTTRLTRWLTALDNFEAKMALLPAVAAYGRLTAATGLVLEATGLQLPLGATCIIERQDGPETKEVESEVVGFNGQALFLMPLEEVEGILPGARVYARNGHGDGLQSGKQLPLGPALLGRVLDGGGKPLDGLPAPDTLETGALITPPFNPLQRTPIEHVLDTGVRAINALLTVGRGQRMGLFAGSGVGKSVLLGMMARYTRADVIVVGLIGERGREVKDFIENILGPDGRARSVVIAAPADVSPLLRMQGAAYATRIAEDFRDRGQHVLLIMDSLTRYAMAQREIALAIGEPPATKGYPPSVFAKLPALVERAGNGIHGGGSITAFYTVLTEGDDQQDPIADSARAILDGHIVLSRRLAEAGHYPAIDIEASISRAMTALITEQHYARVRLFKQLLSSFQRNRDLVSVGAYAKGSDPMLDKAITLWPQLEAFLQQGIFERADWEDSLQALDLIFPTV
notes: FliI of Salmonella enterica, UniProt P26465, with R26A/R27A/R33A/R76A; also called FliI-4A; His-FliI-4A; source: S. enterica SJW1368, pTrc99A-based plasmid co-expressing FliH; in lysate (Ni pull-down) and purified (Ni-NTA, then SEC to remove FliH)
Question: With B3 as the binder, how does the “stoichiometry N” value [1] read?
Answer: 6
